From the nanobody polyreactivity screen of Harvey et al. (2022)

Experiment: yeast display, Sf9 membrane polyspecificity reagent, FACS + sequencing; frameworks hold sequencing errors
How it was run: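 Genes from sorted yeast were amplified by colony PCR, read by MiSeq 2 × 250 sequencing and filtered on CDR length. These cells carried a synthetic nanobody library in Saccharomyces cerevisiae BJ5465 and were sorted by FACS into low and high (top ~1%) gates on anti-HA and streptavidin fluorescence. Polyreactivity is labelled according to the gate of origin.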

Sequence	polyreactivity (PSR sort gate)
QVQLVESGGGLVQAGGSLRLSCAASGFTFSLYAMGWYRQAPGKERELVASISSRGGSTYYADSVKGRFTISRDNAKNTVYLQMNSLKPEDTAVYYCNAGSVTRAWWGYWPFNYWGQGTQVTVSS	low polyreactivity
QVQLVESGGGLVQAGGSLRLSCAASGFTFSNNVMGWYRQAPGKERELVADITDSGGDTYYADSVKGRFTISRDNAKNTVYLQMNSLKPEDTAVYYCAARPQHFDLDLAYSGFDYWGQGTQVTVSS	high polyreactivity
QVQLVESGGGLVQAGGSLRLSCAASGFTFSNYAMGWYRQAPGKEREFVAAISGTGGSTYYADSVKGRFTISRDNAKNTVYLQMNSLKPEDTAVYYCNARERVSRQYTFDYWGQGTQVTVSS	high polyreactivity
QVQLVESGGGLVQAGGSLRLSCAASGFTFSPNAMGWYRQAPGKERELVAAISKRGASTYYADSVKGRFTISRDNAKNTVYLQMNSLKPEDTAVYYCNVGASARKPYDYWGQGTQVTVSS	high polyreactivity
QVQLVESGGGLVQAGGSLRLSCAASGFTFSPYTMGSYRQAPGKERELVAGITSRGGSTYYADSVKGRFTISRDTAKNTVYLQMNILKPEDSAVYYCAARSPGYYRIVWYDYWGQGTQVTVSS	high polyreactivity
QVQLVESGGGLVQAGGSLRLSCAASGFTFSRNDMGWYRQAPGKERELVASITTSGGGTYYADSVKGRFTISRDKAKNTVYLQMNSLKPEDTAVYYCAAEYYSIRYGPHSIEVYGMDYWGQGTQVTVSS	low polyreactivity
QVQLVESGGGLVQAGGSLRLSCAASGFTFSRNGMGWYRLAPGKERELVADITLSGASTYYADSVKGRFTISRDNAKNTVYLQMKSLKPEDTAVYYCAADPYHWRWGWRHDYWGQGTQVTVSS	low polyreactivity
QVQLVESGGGLVQAGGSLRLSCAASGFTFSRNTMGWYRQAPGKERELVAAITWRGGSTYYADSVKGRFTISRDNAKNTVYLQMNSLKPEDTAVYYCAASSPNLEFDYWGQGTQVTVSS	high polyreactivity
QVQLVESGGGLVQAGGSLRLSCAASGFTFSRYAMAWYRQAPGKERELVAAITWSGGRTYYADSVKGRFTISRDNAKNTVYLQMNSLKPEATAVYYCAAVYHVWKYHYDYWGQGTQVTVSS	high polyreactivity
QVQLVESGGGLVQAGGSLRLSCAASGFTFSRYAMGWYRPAPGKERELVAAISTRGGRTYYADSVKGRFTISRDNAKNTVYLQMNSLKPEDTAVYYCAADATVGSSDYWGQGTQVTVSS	high polyreactivity
QVQLVESGGGLVQAGGSLRLSCAASGFTFSRYAMGWYRQAPGKERELVAAISYSGGRTYYADSVKGRFTISRDNAKNTVYLQMKSLKPEDTAVYYCNAFFTSSGWRLGYDYWGQGTQVTVSS	high polyreactivity
QVQLVESGGGLVQAGGSLRLSCAASGFTFSRYAMGWYRQAPGKERELVAAITRRGGRTYYADSVKGRFTISRDNAKNTVFLQMNSLKPEDTAVYYCITDAYRLGYDYWGQGTQVTVSS	high polyreactivity
QVQLVESGGGLVQAGGSLRLSCAASGFTFSRYAMGWYRQAPGKEREYVAAISWSGGSTYYADSVKGRFTISRDNAKNTVYLQMNSLKPEDTAVYNCNAGAQLLASQTRYDYWGQGTQVTVSS	low polyreactivity
QVQLVESGGGLVQAGGSLRLSCAASGFTFSRYAMGWYRQAPGTERELVAAITSRGGSTYYADSVKGRFTISRDNAKNTVYLQMNSLKPEDTAVYYCAASGRNRKDGLYEYYYWGQGTQVTVSS	high polyreactivity
QVQLVESGGGLVQAGGSLRLSCAASGFTFSSNAMGWYRQAPGKERELVADINWSGGRTYYADSVKGRFTISRDNAKYTVYLQMNSLKPEDTAVYYCAAVLSWRQYYREYDYWGQGTQVTVSS	high polyreactivity
QVQLVESGGGLVQAGGSLRLSCAASGFTFSSYAMGWYRQAPGKERELVAAISSSGSRTYYADSVKGRFTISRDNAKNTVYLQMNSLKPEDTAVYYCAARPGDGGYYYWGQGTQVTVSS	high polyreactivity
QVQLVESGGGLVQAGGSLRLSCAASGFTFSSYDMGWYRQAPGKERELVAAISRSGGSTYYADSVKGRFTISRDNAKNTVYLQMNCLKPEDTAVYYARAKYSRVTLYQGYGYWGQGTQVTVSS	high polyreactivity
QVQLVESGGGLVQAGGSLRLSCAASGFTFSTNAMGWYRQAPGKERELVAAISKSGVSTYYADSVKGRFTISRDNAKNTVYLQMNSLKPEDTAVYYCAADPKIALYKVWRYDYWGQGTQVTVSS	high polyreactivity
QVQLVESGGGLVQAGGSLRLSCAASGFTFSTYAMGWDRQAPGKERELVAAISRSGGSTYYADSVKGRFTISRDNAKNTVYLQMNSLKPEDTAVYYCAVRPFRSAGGSVTRGAYYYWGQGTQVTVSS	high polyreactivity
QVQLVESGGGLVQAGGSLRLSCAASGFTFSTYDMGWYRQAPRKERELVAAIDYIDGSTYYADSVKGRFTISRDNAKNTVDLQMNCLKPEDTAVYYCAAHYYYDEFGYWGQGTQVTVSS	low polyreactivity
QVQLVESGGGLVQAGGSLRLSCAASGFTFSVNAMGWYRQAPGKERELVAAISSRGGSTYYADSVKGRFTISRDNAKNTVYLQMNSLKPEDTAVYYCAKYPFYRSRHLGYWGQGTQVTVSS	high polyreactivity
QVQLVESGGGLVQAGGSLRLSCAASGFTFSWYVMGWYRQAPGKERELVATITNRGGSTYYADSVKGRFTISRDNAKNTVYLQMNSLKPEDTAVYYCAARNYGKYRTNDYWGQGTQVTVSS	high polyreactivity
